The source of these data is US20080008712.

For one data set, the target named is T1, CDC25B1.
T1 chain: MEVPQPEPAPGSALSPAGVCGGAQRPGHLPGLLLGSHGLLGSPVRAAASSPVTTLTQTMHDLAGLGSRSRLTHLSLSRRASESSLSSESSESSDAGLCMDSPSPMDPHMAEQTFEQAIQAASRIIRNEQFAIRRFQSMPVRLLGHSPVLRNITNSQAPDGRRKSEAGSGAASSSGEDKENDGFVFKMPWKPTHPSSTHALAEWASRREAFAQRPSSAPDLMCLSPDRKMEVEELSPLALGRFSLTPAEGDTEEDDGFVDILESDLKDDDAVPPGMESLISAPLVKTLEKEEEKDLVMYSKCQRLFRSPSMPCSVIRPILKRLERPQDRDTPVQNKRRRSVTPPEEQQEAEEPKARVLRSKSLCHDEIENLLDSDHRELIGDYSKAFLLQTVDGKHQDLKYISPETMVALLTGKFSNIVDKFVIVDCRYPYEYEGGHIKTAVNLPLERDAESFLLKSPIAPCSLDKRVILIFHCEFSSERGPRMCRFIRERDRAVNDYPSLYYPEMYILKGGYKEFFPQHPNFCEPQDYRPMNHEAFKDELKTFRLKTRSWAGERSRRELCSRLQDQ

Another data set has as its target T2, CDC25B2.
T2 chain: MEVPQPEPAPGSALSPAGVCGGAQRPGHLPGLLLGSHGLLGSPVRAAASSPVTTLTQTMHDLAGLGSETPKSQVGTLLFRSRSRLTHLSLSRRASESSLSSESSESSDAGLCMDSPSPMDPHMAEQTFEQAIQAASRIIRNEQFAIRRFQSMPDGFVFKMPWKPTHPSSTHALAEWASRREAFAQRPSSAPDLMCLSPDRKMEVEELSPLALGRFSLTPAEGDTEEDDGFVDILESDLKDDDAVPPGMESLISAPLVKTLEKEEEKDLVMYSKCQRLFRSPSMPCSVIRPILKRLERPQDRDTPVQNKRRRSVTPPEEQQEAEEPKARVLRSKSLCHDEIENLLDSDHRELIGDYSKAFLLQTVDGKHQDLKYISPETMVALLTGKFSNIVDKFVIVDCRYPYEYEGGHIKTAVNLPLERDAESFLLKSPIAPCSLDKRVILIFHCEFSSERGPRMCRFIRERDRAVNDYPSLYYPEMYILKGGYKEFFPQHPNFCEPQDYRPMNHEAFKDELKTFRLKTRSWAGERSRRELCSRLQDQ

Data set [1] addresses T3, CDC25B3 recombinant protein.
T3 chain: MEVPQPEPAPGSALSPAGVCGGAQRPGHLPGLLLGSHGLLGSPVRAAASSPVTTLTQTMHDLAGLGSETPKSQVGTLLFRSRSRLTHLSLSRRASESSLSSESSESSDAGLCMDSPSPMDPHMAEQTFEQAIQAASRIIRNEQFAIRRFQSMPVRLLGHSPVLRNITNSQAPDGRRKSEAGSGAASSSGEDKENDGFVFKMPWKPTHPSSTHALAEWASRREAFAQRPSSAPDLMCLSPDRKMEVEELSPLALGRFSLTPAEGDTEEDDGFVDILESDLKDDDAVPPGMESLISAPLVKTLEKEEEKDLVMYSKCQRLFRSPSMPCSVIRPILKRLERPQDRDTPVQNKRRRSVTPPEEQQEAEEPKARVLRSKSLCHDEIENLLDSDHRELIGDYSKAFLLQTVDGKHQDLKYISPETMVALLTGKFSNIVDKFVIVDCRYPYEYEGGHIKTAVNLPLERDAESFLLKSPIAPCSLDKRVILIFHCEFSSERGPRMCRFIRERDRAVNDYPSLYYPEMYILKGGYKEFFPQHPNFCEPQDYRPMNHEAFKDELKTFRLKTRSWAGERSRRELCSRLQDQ

The next data set has as its target T4, CDC25B4.
T4 chain: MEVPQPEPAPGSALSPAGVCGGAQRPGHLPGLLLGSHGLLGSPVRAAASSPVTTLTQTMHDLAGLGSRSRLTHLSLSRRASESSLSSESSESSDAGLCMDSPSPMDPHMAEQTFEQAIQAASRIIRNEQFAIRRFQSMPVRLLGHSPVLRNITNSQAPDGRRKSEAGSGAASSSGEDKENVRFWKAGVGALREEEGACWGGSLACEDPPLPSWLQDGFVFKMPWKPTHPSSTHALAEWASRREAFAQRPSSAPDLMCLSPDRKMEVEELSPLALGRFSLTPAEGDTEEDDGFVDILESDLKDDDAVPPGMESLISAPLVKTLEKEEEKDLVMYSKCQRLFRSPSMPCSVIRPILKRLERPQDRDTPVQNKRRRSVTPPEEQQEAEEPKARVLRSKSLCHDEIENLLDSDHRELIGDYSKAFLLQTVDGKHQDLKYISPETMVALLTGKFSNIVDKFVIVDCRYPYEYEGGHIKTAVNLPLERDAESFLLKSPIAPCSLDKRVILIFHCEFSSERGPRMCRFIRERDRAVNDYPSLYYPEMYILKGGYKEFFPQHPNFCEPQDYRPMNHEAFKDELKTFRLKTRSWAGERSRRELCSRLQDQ

In another data set the target is T5, CDC25B5.
T5 chain: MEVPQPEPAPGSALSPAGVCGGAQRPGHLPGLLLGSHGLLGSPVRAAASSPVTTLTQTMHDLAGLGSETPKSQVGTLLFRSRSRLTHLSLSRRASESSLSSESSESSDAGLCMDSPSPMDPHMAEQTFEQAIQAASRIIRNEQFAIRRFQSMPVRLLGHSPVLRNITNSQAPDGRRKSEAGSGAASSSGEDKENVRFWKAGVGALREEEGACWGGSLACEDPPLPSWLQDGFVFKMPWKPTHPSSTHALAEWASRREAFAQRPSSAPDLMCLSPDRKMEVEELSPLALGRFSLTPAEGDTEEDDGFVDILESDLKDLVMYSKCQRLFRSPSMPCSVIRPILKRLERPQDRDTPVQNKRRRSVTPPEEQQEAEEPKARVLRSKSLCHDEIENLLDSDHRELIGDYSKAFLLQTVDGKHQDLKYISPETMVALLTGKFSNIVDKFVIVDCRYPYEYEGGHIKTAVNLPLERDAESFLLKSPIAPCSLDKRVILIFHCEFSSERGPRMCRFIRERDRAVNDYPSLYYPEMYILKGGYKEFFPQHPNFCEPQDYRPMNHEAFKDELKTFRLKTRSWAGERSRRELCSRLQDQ

B1: recombinant Aurora A kinase (protein)
chain: MDRSKENCISGPVKATAPVGGPKRVLVTQQFPCQNPLPVNSGQAQRVLCPSNSSQRIPLQAQKLVSSHKPVQNQKQKQLQATSVPHPVSRPLNNTQKSKQPLPSAPENNPEEELASKQKNEESKKRQWALEDFEIGRPLGKGKFGNVYLAREKQSKFILALKVLFKAQLEKAGVEHQLRREVEIQSHLRHPNILRLYGYFHDATRVYLILEYAPLGTVYRELQKLSKFDEQRTATYITELANALSYCHSKRVIHRDIKPENLLLGSAGELKIADFGWSVHAPSSRRTTLCGTLDYLPPEMIEGRMHDEKVDLWSLGVLCYEFLVGKPPFEANTYQETYKRISRVEFTFPDFVTEGARDLISRLLKHNPSQRPMLREVLEHPWITANSSKPSNCQNKESASKQS
As for B1, the in vitro phosphorylation entry with CDC25B1 is given as “the recombinant Aurora A kinase phosphorylates CDC25B1 on the serine 339”; in the data set with CDC25B2, “CDC25B2 on the serine 312”; with CDC25B4, “CDC25B4 on the serine 374”; with CDC25B5 it was “CDC25B5 on the serine 361”. Besides, in data set [1], the “in vitro phosphorylation, MS/MS of the tryptic peptide 353-SVTPPEEQQEAEEPK-367” value is recorded as “it is the serine 353 which is phosphorylated by the kinase”.
